T1: rat TG2 (rat, UniProt Q9WVJ6 1-686, limits assumed)
T1 sequence: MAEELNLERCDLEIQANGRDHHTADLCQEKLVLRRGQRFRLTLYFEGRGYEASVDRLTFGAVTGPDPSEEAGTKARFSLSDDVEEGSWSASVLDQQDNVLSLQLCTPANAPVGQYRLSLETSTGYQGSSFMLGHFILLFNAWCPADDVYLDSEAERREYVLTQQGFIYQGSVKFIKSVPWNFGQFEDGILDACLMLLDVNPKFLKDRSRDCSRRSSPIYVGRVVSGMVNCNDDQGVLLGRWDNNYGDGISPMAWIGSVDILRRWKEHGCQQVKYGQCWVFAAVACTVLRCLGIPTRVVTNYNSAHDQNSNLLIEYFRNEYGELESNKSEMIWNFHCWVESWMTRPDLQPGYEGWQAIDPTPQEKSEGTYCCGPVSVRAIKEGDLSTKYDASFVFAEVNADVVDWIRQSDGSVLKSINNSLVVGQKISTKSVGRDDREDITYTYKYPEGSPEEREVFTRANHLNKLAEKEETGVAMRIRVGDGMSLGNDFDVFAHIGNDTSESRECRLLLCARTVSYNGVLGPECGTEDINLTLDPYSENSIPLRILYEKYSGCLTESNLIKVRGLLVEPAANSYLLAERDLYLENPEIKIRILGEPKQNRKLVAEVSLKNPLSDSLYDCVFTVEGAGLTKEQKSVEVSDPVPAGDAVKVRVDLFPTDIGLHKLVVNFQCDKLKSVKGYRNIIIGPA

T2: human transglutaminase type 2 (TG2) (human, UniProt P21980 1-687)
T2 construct: Recombinant full-length human TG2 (Zedira; cat; T002 in the Biacore work); Also used here for the endogenous TG2 of HepG2 lysate and HK-2 cells; also called hTG2; rhTG2
T2 sequence: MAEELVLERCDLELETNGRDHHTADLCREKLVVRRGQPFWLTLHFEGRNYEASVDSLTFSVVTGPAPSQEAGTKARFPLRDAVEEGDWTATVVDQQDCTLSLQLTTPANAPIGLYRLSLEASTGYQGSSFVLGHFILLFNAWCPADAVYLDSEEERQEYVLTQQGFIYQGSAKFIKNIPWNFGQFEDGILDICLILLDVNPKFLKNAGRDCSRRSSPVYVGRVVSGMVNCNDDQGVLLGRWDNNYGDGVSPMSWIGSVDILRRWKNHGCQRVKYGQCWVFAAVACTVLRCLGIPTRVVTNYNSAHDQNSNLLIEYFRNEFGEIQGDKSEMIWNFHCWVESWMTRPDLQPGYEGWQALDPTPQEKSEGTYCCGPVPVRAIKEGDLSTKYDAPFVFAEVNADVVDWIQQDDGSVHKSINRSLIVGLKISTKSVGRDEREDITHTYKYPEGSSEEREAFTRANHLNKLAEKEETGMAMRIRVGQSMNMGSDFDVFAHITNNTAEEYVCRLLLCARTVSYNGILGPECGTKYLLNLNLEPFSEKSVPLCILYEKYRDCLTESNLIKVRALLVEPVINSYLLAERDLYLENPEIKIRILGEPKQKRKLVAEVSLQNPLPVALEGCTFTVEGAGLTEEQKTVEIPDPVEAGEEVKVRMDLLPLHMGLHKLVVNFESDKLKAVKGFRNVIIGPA

B1: BB7 murine monoclonal antibody (antibody, V domains shown)
VH: AVQLVESGGGLVKPGGSLKLSCAASGIIFSSSAMSWVRQTPEKRLEWVATISSGGRSTYYPDSVKGRFTVSRDSAKNTLYLQMDSLRSEDTAIYYCAKLISPYWGQGTTLTVSS
VL: AIKMTQSPSSMYASLGERVIITCKASQDINSYLTWFQQKPGKSPKTLIYLTNRLMDGVPSRFSGSGSGQEFLLTISGLEHEDMGIYYCLQYVDFPYTFGGGTKLEIK
notes: Mouse hybridoma IgG; heavy chain amplified with primer MHCG1, kappa light chain; also called mBB001
B2: DD9 murine monoclonal antibody (antibody, V domains shown)
VH: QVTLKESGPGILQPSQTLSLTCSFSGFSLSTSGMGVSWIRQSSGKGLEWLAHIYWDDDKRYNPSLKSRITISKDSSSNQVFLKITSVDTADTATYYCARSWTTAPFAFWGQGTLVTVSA
VL: QIVLTQSPAIMSASPGEKVTMTCSASSSVDYMYWYQQKPGSSPRLLIYDTSNLASGVPVRFSGSGSGTSYSLTISRMGAEDAATYYCQQWNSSPLTFGAGTKLELK
notes: Mouse hybridoma IgG; heavy chain amplified with primer MHCG2A, kappa light chain; also called mDD9001
B3: EH6 murine monoclonal antibody (antibody, V domains shown)
VH: EVQLQQSGPELVKPGASVKMSCKASGYTFTSYVMHWVKQKPGQGLEWIGFINPYNDGTKYNEKFKGKATLTSDKASTTAYMELSSLTSEDSAVYYCARFSSGYWGQGTTLTVSS
VL: DVLMTQTPLSLPVSLGDQASISCRSSQSIVHSNGNTYLEWYLQKPGQSPKLLIYKVSNRFSGVPDRFSGSGSGTDFTLKISRVGAEDLGVYYCLQVSHVPFTFGSGTKLEIK
notes: Mouse hybridoma IgG; heavy chain amplified with primer MHCG2B, kappa light chain
B4: cBB001 chimeric antibody (murine BB7 variable regions) (antibody, human IgG1, V domains shown)
VH: AVQLVESGGGLVKPGGSLKLSCAASGIIFSSSAMSWVRQTPEKRLEWVATISSGGRSTYYPDSVKGRFTVSRDSAKNTLYLQMDSLRSEDTAIYYCAKLISPYWGQGTTLTVSS
VL: AIKMTQSPSSMYASLGERVIITCKASQDINSYLTWFQQKPGKSPKTLIYLTNRLMDGVPSRFSGSGSGQEFLLTISGLEHEDMGIYYCLQYVDFPYTFGGGTKLEIK
notes: also called chimeric BB7
B5: cDH001 chimeric antibody (murine DH2 variable regions) (antibody, human IgG1, V domains shown)
VH: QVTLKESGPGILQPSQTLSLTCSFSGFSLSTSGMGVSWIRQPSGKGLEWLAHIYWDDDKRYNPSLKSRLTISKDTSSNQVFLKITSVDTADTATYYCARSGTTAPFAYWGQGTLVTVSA
VL: QIVLTQSPAIMSASPGEKVTMTCSASSSVSYMYWYQQKPGSSPRLLIYDTSNLASGVPVRFSGSGSGTSYSLTISRMEAEDAATFYCQQWSSSPLTFGAGTKLELK
B6: cDD9001 chimeric antibody (murine DD9 variable regions) (antibody, human IgG1, V domains shown)
VH: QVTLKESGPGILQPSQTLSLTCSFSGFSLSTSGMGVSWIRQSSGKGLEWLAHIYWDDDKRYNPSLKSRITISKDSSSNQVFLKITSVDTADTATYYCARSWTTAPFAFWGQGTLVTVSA
VL: QIVLTQSPAIMSASPGEKVTMTCSASSSVDYMYWYQQKPGSSPRLLIYDTSNLASGVPVRFSGSGSGTSYSLTISRMGAEDAATYYCQQWNSSPLTFGAGTKLELK

These binders were tested against T1, rat TG2 (assay: cell-based or functional assay).

First: B1
Second: B2
The “IC50 of TG2 activity, 3H putrescine incorporation” value of the first is higher: 0.00032 mg/ml IgG per ng TG2 for the first, 0.000303 mg/ml IgG per ng TG2 for the second.

For B3, the “IC50 of TG2 activity, 3H putrescine incorporation” value was 0.000403 mg/ml IgG per ng TG2.

These binders were tested against T2, human transglutaminase type 2 (TG2) (assay: SPR (Biacore T200), antibody captured on anti-human IgG1 Fc chip, TG2 injected; +Ca2+).
Description: Recombinant cynomolgus monkey TG2 was obtained from Trenzyme. Surface plasmon resonance (SPR) was measured on a Biacore T200 instrument (GE Healthcare). CM5 chips (GE Healthcare cat. no.: BR-1006-68) were coated with monoclonal mouse anti-human IgG1 (Fc) (MAH) antibody (GE Healthcare cat. no.: BR-1008-39) by amine-coupling as described in the manufacturers instructions. HBS-EP+ buffer (0.01 M HEPES, 0.15 M NaCl, 3 mM EDTA, 0.05% v/v Surfactant P20) and HBS-P+ buffer (0.01 M HEPES, 0.15 M NaCl, 0.05% Surfactant P20) were purchased from GE Healthcare as 10× stocks (cat. nos.: BR-1006-69 and BR-1006-71). Calcium Chloride solution was obtained from Sigma Aldrich (cat. no.:21115).
The method employed to determine the affinity of the anti-TG2 antibodies involved the capture of the chimeric or humanised antibodies on a MAH coated CM5 chip, followed by the injection of a series of TG2 samples in running buffer. The running buffer was 1×HBS-P+ containing 1 mM CaCl_2, or 1×HBS-EP+ for calcium-free experiments. Antibody capture was carried out for a contact time of 120 seconds at a flow rate of 10 μl/min resulting in the capture of approximately 40-80 RU. TG2 was injected over the immobilised antibody at concentrations ranging from 25 nM to 400 nM with a contact time up to 600 seconds at a flow rate of 30 μl/min. Dissociation of TG2 was typically measured for up to 5400 seconds (1.5 hours). Regeneration of the chip was then performed using 3 M MgCl_2, for a contact time of 60 seconds at a flow rate of […], followed by a 300 s stabilisation period before the next sample. For each of human and cynomolgus monkey TG2, at least 5 injections at a variety of concentrations were performed in at least two separate experiments.
Kinetic data were exported from the Biacore T200 Evaluation Software and analysed using GraphPad Prism, where the association phases and dissociation phases were analysed separately using a one phase association model and one-phase exponential decay model respectively. Association rates ($kon$) were calculated for each curve individually, and dissociation rates ($koff$) values from the long dissociation phase data collected. Where $koff$ values were calculated to be $<1\times10^-5$ s^-1, values were set at 1×10^-5 for analysis, as rates slower than this could not be estimated accurately.

Going from B4 to B5, the Kd rises from under 50 pM to 640 pM. The first binds more tightly here.

B6 showed a Kd of 430 pM.

Compared with B4, B5 is higher in koff: under 1e-05 s⁻¹ for the first, 1.8e-05 s⁻¹ for the second.

Binder B6 has a koff of 1.3e-05 s⁻¹.

Compared with B4, B5 is 7.5-fold lower in kon: 210000 M⁻¹ s⁻¹ for the first, 28000 M⁻¹ s⁻¹ for the second.

For B6, the kon was 30000 M⁻¹ s⁻¹.

Reference: patent publication US10005846 (LIFEARC, dated 2018)
